# The supplement of paper PMC9170038
# Assays:
# MS2 coat protein [1] = test: apparent KD of MS2 coat protein; designed switch direction (-1 OFF switch, 1 ON switch): 1; higher = weaker reporter binding; conditions: Eterna round: R98
# Protocol: (§1)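 RNA-MaP: designed FMN/MS2 RNA switches (84 nt design region) are transcribed on-chip within common flanks and titrated with SNAP-549-labelled MS2 coat protein (about 1-3000 nM) in 100 mM Tris pH 7.5, 80 mM KCl, 4 mM MgCl2, without or with 200 uM FMN. Median apparent KD per design; activation ratio = KD,OFF / KD,ON.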
# MS2 coat protein [2] = test: apparent KD of MS2 coat protein; designed switch direction (-1 OFF switch, 1 ON switch): -1; higher = weaker reporter binding; conditions: Eterna round: R98
# Protocol: as §1
# MS2 coat protein [3] = test: apparent KD of MS2 coat protein; higher = weaker reporter binding; conditions: Eterna round: R101
# Protocol: as §1
Sequence,apparent KD of MS2 coat protein (MS2 coat protein [1]; input ligand: FMN 200 uM) [nM],apparent KD of MS2 coat protein (MS2 coat protein [1]; input ligand: none) [nM],also measured
ACAUACAUUCGAGGAUAUCGGUGAUUAAUUCUACGAGAAGGCGAUUUAAGAUAUAAUAUUUUAGACAUGAGGAUCACCCAUGUA [JR_SSNG1_Sub036],22.9,28.3,
AAAAUAAAGGCAGGAUAUACAUGAAUAAAUAAUAUAAUAUAUAAUAAAACAUGAGGAUCACCCAUGUAGAAGGGCCAAAAUAAA [LRO024_Exclusion NG 2],,,apparent KD of MS2 coat protein (MS2 coat protein [2]; input ligand: FMN 200 uM): 107 nM; apparent KD of MS2 coat protein (MS2 coat protein [2]; input ligand: none): 72.3 nM
UCAUACAUGAGGAUCACCCAUGACAUGAGGAUCACCCAUGUGCAGGAUAUACGUGAUAUAAUAUAGUAGAAGGGCAGACCAUAA [LRO005_Exclusion NG 3],,,apparent KD of MS2 coat protein (MS2 coat protein [2]; input ligand: FMN 200 uM): 59.1 nM; apparent KD of MS2 coat protein (MS2 coat protein [2]; input ligand: none): 40.6 nM
GUUGCUUUCCGAGGAUAUUCCGGGCGUGGCUAUACAUGAGGAUCACCCAUGUGGCGGAAGCCUAGGGAGAAGGCGGGCUGCUUC [salish99_SSNG2_r2_230],16.3,17.1,
GGUUGACGACAAUUACAUGAGGAUCACCCAUGUUGUGGGAUGCAGGAUAUGUGGUAUAUUAUUUAACAGAAGGGCAAUAAUUUU [JR_SSNG3_Sub063],54.7,32.3,
UCUCUGGAAUACAUGAGGAUCACCCAUGUGUAAACAUUUACACAGGAUAUCGACGUCUGAGACGACGAGAAGGGUGGGCAGCAA [Rexele],1000,252,
GAUCCGAGCACAGGAUAUGUUAGAGAGGGUGAGACAGAAGGGUGCUCCGGUAAGGCCAAGCACAUGAGGAUCACCCAUGUACAU [Orbezaen],64.9,29.7,
ACACGUCGUGAGAAGGAGGAUCACCCUUUCGAAAGAAAGAGCCACCGUGAAAACGGUGGCAAAUUCUAGGAUAUCACGACGUGA [#SharedSequence - IExNG2: 2] (puzzle (switch architecture): Inverted Exclusion NG 2),,,apparent KD of MS2 coat protein (MS2 coat protein [3]; input ligand: FMN 200 uM): 363 nM; apparent KD of MS2 coat protein (MS2 coat protein [3]; input ligand: none): 230 nM
GGUCCAUCAUGAGGAUAUGGCACCUUAUUGGUGCCAGAAGGCAUGUGUAUUCACAUGAGGAUCACCCAUGUAAUAAAUUGGACC [Pyrimidine booster 8],21.5,53.2,
CGUAGUCCGUAGAAGGGUGACAUGAGGAUCACCCAUGUGCGAGCGGAGGGAGUCAGCGGCUCGCCACAGGAUAUACGGAGCACG [Eniszabe] (puzzle (switch architecture): Inverted Same State NG 2),,,apparent KD of MS2 coat protein (MS2 coat protein [3]; input ligand: FMN 200 uM): 28.8 nM; apparent KD of MS2 coat protein (MS2 coat protein [3]; input ligand: none): 137 nM
CCGAUGCAAAUAAAACAUGAGGAUCACCCAUGUGAGUCUCAUGAGGAUAUGCAGGUCAAAGACUUGCAGAAGGCAUGGCGUCGG [Eli sng3 2.08],135,1370,
UAGAUAUGGUGAGGAUAUGCAGAGGAUCACCCUGUAGAAGGCAUCAGGGUAGAAGGUGCAAGGAUCACCUGUAAGGAUAUAUCC [pwkr2 ssNG1 DX.29],917,1050,
UGUUGUUACGCAGGAUAUUGCCAACAGGCGGUAGGAUAUCCGAAAGGAGAAGGACCGCCAACAGGCGAGAAGGGCGGGUUAACA [pwkr exNG2 2xF7 2FMN.10.1],,,apparent KD of MS2 coat protein (MS2 coat protein [2]; input ligand: FMN 200 uM): 37 nM; apparent KD of MS2 coat protein (MS2 coat protein [2]; input ligand: none): 35.2 nM
GCACUGGAUGUAGGAUAUCAGGACGAUAAGUCCUGAGAAGGACAUGAGGAUCACCCAUGUGCCAAAACCAGUGCAUAUAAUAUA [Denovo Exng1 33],,,apparent KD of MS2 coat protein (MS2 coat protein [2]; input ligand: FMN 200 uM): 16.9 nM; apparent KD of MS2 coat protein (MS2 coat protein [2]; input ligand: none): 12.5 nM
UUGGACGUCGUAGGAUAUGUAGGAUAUUCCUACAUGAGGAUCACCCAUGUUGACAUGGAAGAAGGACAGAAGGACGAUGUCCAU (puzzle (switch architecture): Same State NG 2),,,apparent KD of MS2 coat protein (MS2 coat protein [3]; input ligand: FMN 200 uM): 4.56 nM; apparent KD of MS2 coat protein (MS2 coat protein [3]; input ligand: none): 217 nM
